Data on 1 substance can be found in paper PMC3094553.

The target of the assay is PF0699 (conserved hypothetical protein) (Pyrococcus furiosus) (UniProt Q8U2X9). The assay is described as follows: SAXS.

For orientation: stoichiometry N means the number of molecules, sites or subunits per partner or assembly. As to “PF0699 (conserved hypothetical protein) (from UniProt Q8U2X9 1-139) (natural protein)”, the stoichiometry N stood at 2.
